Results taken from patent publication US20220177590A1 (REMEGEN, published 2022).

Assays:
PD-L1 (Fc Tag) [1] = target: T1, PD-L1 (Fc Tag) (human, UniProt Q9NZQ7 19-239, limits assumed); experiment: competition ELISA, PD-L1 (Fc Tag) coated, human PD-1 at a fixed concentration as the competing ligand, hAAG5D8 titrated
T1 construct: also called human PD-L1; not shown: Fc tag
Procedure: (§1) The ability of hAAG5D8 to compete with PD-1 to bind to PD-L1 was tested by ELISA. PD-L1 (Fc Tag) was diluted to 1 μg/mL with a coating buffer (6 mM Na₂CO₃, 14 mM NaHCO₃), and then added 100 μL to each well followed by overnight incubation at 4° C. The plate was then washed with PBST, and added with 250 μL of a blocking solution (3% BSA/PBST) to each well to block for 2 h at 25° C. Afterwards, the plate was washed with PBST and added with 50 μL of human PD-1 at a concentration of 6 μg/mL as well as 50 μL of a gradiently diluted hAAG5D8 solution (at a concentration of 8000 ng/mL, 2000 ng/mL, 500 ng/mL, 250 ng/mL, 125 ng/mL, 62.5 ng/mL, 31.25 ng/mL, 6.25 ng/mL, or 1.25 ng/mL) to each well followed by mixing well and incubation at 25° C. for 2 h. Next, the plate was washed with PBST and added with 100 μL of an enzyme-labeled secondary antibody (goat anti-human IgG-Fc-HRP diluted 1:5000) to each well, followed by incubation at 25° C. for 1 h. Finally, color development was performed and values were read at 450 nm. A four-parameter equation was used for curve fitting to calculate the EC₅₀ value.
(§2) Results and conclusions: EC₅₀ value and the competitive binding curve of hAAG5D8 competitively binding to human PD-L1 are shown in Table 8 and FIG. 2, respectively.

PD-L1 (Fc Tag) [2] = target: T1, PD-L1 (Fc Tag); experiment: competition ELISA, PD-L1 (Fc Tag) coated, human PD-1 at 6 ug/mL as competitor, anti-human IgG-Fc-HRP detection
Procedure: as §1, §2

[3] = target: T2, human PD-L1 (R&D company), immobilized on Ni-NTA probe (human, UniProt Q9NZQ7 19-239); experiment: BLI, PD-L1 immobilized on Ni-NTA probe, hAAG5D8 at 100, 50 and 25 nM in solution
T2 construct: Bought protein; also called PD-L1 solution; not shown: His tag only implied by capture on the Ni-NTA probe
Procedure: The affinity of hAAG5D8 to human PD-L1 was detected using biolayer interferometry (BLI). The wells in A-D columns 1, 3, and 5 of a black 96-well plate were added with a PBS solution as baseline 1, baseline 2 and a dissociation solution, respectively. The wells in column 2 were added with a PD-L1 solution (R&D company), in column 4 with a hAAG5D8 solution (The concentrations were as follows: 100 nM, 50 nM, 25 nM, and 0 nM), in column 10 with an imidazole solution, in column 11 with water, and in column 12 with a nickel sulfate solution. Ni-NTA probe (Fortebio) was employed in the experiment. First, the probe was dipped in A-D column 1 for 180 seconds to stabilize the baseline. The Ni-NTA probe was then dipped in A-D column 2 for 300 seconds to immobilize PD-L1 on the probe. The Ni-NTA probe was then dipped in A-D column 3 for 120 seconds to stabilize the baseline. The Ni-NTA probe was then dipped in A-D column 4 for 600 seconds to allow the binding of hAAG5D8 with a different concentration to the immobilized PD-L1 protein on the probe. The Ni-NTA probe was then dipped in A-D column 5 for 600 seconds to allow the antibody to dissociate spontaneously. Finally, the Ni-NTA probe was dipped in A-D columns 10, 11, and 12 successively to force the immobilized PD-L1 dissociating from the probe. […]

T1 sequence (Q9NZQ7 19-239 limits assumed): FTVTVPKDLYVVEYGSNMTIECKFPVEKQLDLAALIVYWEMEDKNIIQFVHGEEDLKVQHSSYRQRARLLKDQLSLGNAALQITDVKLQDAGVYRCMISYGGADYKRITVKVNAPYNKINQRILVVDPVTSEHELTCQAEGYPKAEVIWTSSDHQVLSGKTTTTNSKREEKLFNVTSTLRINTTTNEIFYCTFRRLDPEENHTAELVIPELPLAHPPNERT
T2 sequence (Q9NZQ7 19-239): as the sequence (Q9NZQ7 19-239 limits assumed) above

B1: anti-PD-L1 humanized antibody hAAG5D8 (antibody, human IgG1, kappa, V domains shown)
VH: QVQLQESGPGLVKPSETLSLTCTVSGFSLSRYSVHWIRQPPGKGLEWLGMIWGVGTTDYNSALKSRLTISKDTSKNQFSLKLSSVTAADTAVYYCARNWGTADYFDYWGQGTTVTVSS
VL: DIVLTQSPASLAVSPGQRATITCRASKSVHTSGYSYMHWYQQKPGQPPKLLIYLASNLESGVPARFSGSGSGTDFTLTINPVEANDTANYYCQHSGELPYTFGGGTKVEIKR
notes: Humanized from murine mAAG5D8 on a human IgG1 framework; also called anti-PD-L1 antibody
IC50 (read off the curve) (PD-L1 (Fc Tag) [1]): ~0.1 µg/mL
EC50 (PD-L1 (Fc Tag) [2]): 716 pM
Kd [3]: 76.2 pM
